Experimental data taken from patent publication US12186374B2 (Sanofi-Aventis Deutschland GmbH, priority 2014, dated 2025).

Legend:
[1] = tested on: patients with Type 2 diabetes mellitus (T2DM); experiment: Body weight change from baseline to Week 30 (Example 2); format: in vivo, human
Text: (§1) Body weight should be obtained with the patient wearing undergarments or very light clothing and no shoes, and with an empty bladder. The same scale should be used throughout the study, and calibrated on a regular basis as recommended by the manufacturer.
Similar MMRM method or ANCOVA was applied on continuous secondary efficacy endpoints and Cochran-Mantei-Haenszel method stratified by randomization strata was applied on categorical efficacy endpoints.

[2] = tested on: patients with Type 2 diabetes mellitus (T2DM); experiment: Patients receiving rescue therapy (Example 2); format: in vivo, human
Text: Routing measurements and central lab alerts were set up to ensure that glycemic parameters remained under thresholds values predefined for rescue therapy. If values were above these thresholds, and no explanations were found, or appropriate actions failed, or a dose >60 U was necessary to decrease glycemic parameters below the threshold values, rescue therapy was to be introduced along with IMP and metformin (if taken). Newly initiated anti-diabetic medications, or an increase from baseline in background metformin dose were considered as rescue therapy.

[3] = tested on: patients with Type 2 diabetes mellitus (T2DM); experiment: Events adjudicated as allergic reaction by ARAC (Example 2); format: in vivo, human
Text: (§2) The mission of the ARAC will be to adjudicate, in a timely manner, all allergic, or possible allergic events.
(§3) In case a patient experiences an allergic reaction or an allergic-like reaction this has to be reported as an adverse event and recorded in the e-CRF on the specific AE form for suspected allergic event. Additional information is collected on specific allergic reaction complementary form. Allergic reaction or possible allergic reaction will be adjudicated by the ARAC (Section 5.4.2).
(§4) The number (%) of patients with events adjudicated as allergic reactions by ARAC and with events adjudicated by ARAC as possibly related to the IMP will be summarized by treatment group. All the allergic events reported by the investigators on the AE form for suspected allergic event and its associated complementary forms (confirmed or not confirmed by ARAC) will be listed.

[4] = tested on: patients with Type 2 diabetes mellitus (T2DM); experiment: Patient disposition / treatment discontinuation (Example 2); format: in vivo; details: randomized population
patients with T2DM [5] = experiment: Patients with HbA1c ≤6.5% or <7% at Week 30 (Example 3); format: in vivo, human
Text: (§5) Similar MMRM method or analysis of covariance (ANCOVA) was applied on continuous secondary efficacy endpoints and the Cochran-Mantei-Haenszel method stratified by randomization strata was applied for categorical efficacy endpoints.

patients with T2DM [6] = experiment: Body weight change from baseline to Week 30 (Example 3); format: in vivo, human
Text: as §1, §5

patients with T2DM [7] = tested on: patients with T2DM; set-up: species or system human; details: in vivo
Text: as §2, §3, §4

patients with T2DM [8] = experiment: Increased calcitonin reported on AE form (Example 3); format: in vivo, human
Text: During the course of the study, if calcitonin value is found […] (5.9 pmol/L): • A retest should be performed by the central laboratory within 7 days. In addition, blood should be collected and sent to the central laboratory for measurement of: calcium, phosphorus, gastrin, Thyroid Stimulating Hormone (TSH), and anti-thyroid peroxidase (anti-TPO) antibodies. • The clinical and laboratory documentations listed below are to be collected and recorded in source documents as soon as possible: • Potential false positive circumstances: smoking status, proton-pump inhibitor treatments (eg, omeprazole), autoimmune thyroid diseases (Hashimoto's thyroiditis or Grave's disease), differentiated thyroid cancer, hypercalcemia, hypergastrinemia, chronic renal insufficiency (not on dialysis), other neuro-endocrine tumors (lung small cell cancer, intestinal carcinoid), acute pulmonary inflammatory conditions, or sepsis; • Specific personal and/or familial medical history in relation to thyroid or other endocrine diseases; • Specific physical examination (neck, thyroid gland).
If the retest confirms that the calcitonin value is […]: • The event must be reported in the e-CRF on the specific AE form and specific complementary form for “increased calcitonin […]” with all appropriate clinical and laboratory documentation. • An ultrasound scan of the thyroid should be performed and the patient may be referred to a thyroid specialist if judged necessary. • The patient should continue to be followed according to protocol schedule (including planned calcitonin measurements). […] As far as possible, blood should be collected 1 to 2 weeks after IMP discontinuation and sent to the central laboratory for calcitonin measurement. • If at any time during follow-up a calcitonin value ≥20 pg/mL increases by 20% or more between 2 assessments (while remaining below 50 pg/mL), a repeated measurement should be performed earlier than scheduled in the protocol, ie, 1 month later. Once results are available, discussion with Sponsor should be initiated without delay for further guidance. 9.6.7 Monitoring of Renal Function in Case of Prolonged and Severe Nausea and Vomiting

[9] = tested on: patients with Type 2 diabetes mellitus (T2DM); experiment: Pen-related event questionnaire (Example 2); details: on-treatment period
[10] = on-treatment period, Safety population
[11] = PT, on-treatment period, Safety population

For “Gly(A21)-Arg(B31)-Arg(B32)-human insulin [Insulin Glargine]”, the “LS mean body weight change from baseline to Week 30” value ([1]; Example 2) was “+1.10 kg”, the “Body weight, change from baseline to Week 30, LS Mean (SE)” value ([1]; MMRM, mITT population) was −1.11 (0.183) kg and the “Body weight, Week 30, Mean (SD)” value ([1]; mITT population) was 90.68 (16.03) kg. The “Body weight, Week 30, Median” value ([1]; mITT population) was 89.00 kg, the “Patients who received rescue therapy, %” value [2] was 3.4% and the “Patients who received rescue therapy, number” value [2] was 16 patients. The “Allergic reaction by ARAC: All; Anaphylactic reaction” value ([3]; in vivo) was 0 Number (%), the “Allergic reaction by ARAC: All; Angioedema” value ([3]; in vivo) was 0 Number (%) and the “Allergic reaction by ARAC: All; Other allergic reaction; Conjunctivitis allergic” value ([3]; in vivo) was 1 (0.2%) Number (%). The “Allergic reaction by ARAC: All; Other allergic reaction; Rhinitis allergic” value ([3]; in vivo) was 2 (0.4%) Number (%), the “Allergic reaction by ARAC: Not related to IMP; Angioedema” value ([3]; in vivo) was 0 Number (%) and the “Allergic reaction by ARAC: Not related to IMP; Any category; Any event” value ([3]; in vivo) was 3 (0.6%) Number (%). For the same substance, the “Allergic reaction by ARAC: Not related to IMP; Other allergic reaction; Conjunctivitis allergic” value ([3]; in vivo) was 1 (0.2%) Number (%), the “Allergic reaction by ARAC: Not related to IMP; Other allergic reaction; Rhinitis allergic” value ([3]; in vivo) was 2 (0.4%) Number (%) and the “Allergic reaction by ARAC: Possibly related to IMP; Anaphylactic reaction” value ([3]; in vivo) was 0 Number (%). The “Allergic reaction by ARAC: Possibly related to IMP; Any category; Any event” value ([3]; in vivo) was 0 Number (%), the “Allergic reactions possibly related to IMP (ARAC), number of patients” value ([3]; in vivo) was “none” and the “Patients with events adjudicated as allergic reaction by ARAC: All; Any category; Any event” value ([3]; in vivo) was 3 (0.6%) Number (%). The “Allergic reaction by ARAC: All; Urticaria (hives); Urticaria” value [3, 10] was 1 (0.2%) Number (%), the “Allergic reaction by ARAC: Not related to IMP; Urticaria (hives); Urticaria” value [3, 10] was 1 (0.2%) Number (%) and the “Allergic reaction by ARAC: Possibly related to IMP; Urticaria (hives); Urticaria” value [3, 10] was 0 Number (%). The “Status at last study contact: Dead, %” value [4] was 0.9%, the “Status at last study contact: Dead, number of patients” value [4] was 4 patients and the “Study treatment discontinuation due to adverse event, %” value [4] was 1.9%. For the same substance, the “Study treatment discontinuation due to adverse event, number of patients” value [4] was 9 patients, the “Study treatment discontinuation due to lack of efficacy, number of patients” value [4] was 0 patients and the “Patients reaching HbA1c<7.0% at Week 30” value (patients with T2DM [5]; Example 3) was 29.6%. The “Patients reaching HbA1c≤[…] at Week 30” value (patients with T2DM [5]; Example 3) was 14.2%, the “Patients with HbA1c <7% at Week 30” value (patients with T2DM [5]; mITT population) was 108 (29.6%) Number (%) and the “Patients with HbA1c ≤[…] at Week 30” value (patients with T2DM [5]; mITT population) was 52 (14.2%) Number (%). The “Body weight, LS mean change from baseline to Week 30” value (patients with T2DM [6]; Example 3) was “+0.70 kg”, the “Body weight change from baseline to Week 30, LS Mean (SB)” value (patients with T2DM [6]; MMRM, mITT population) was 0.70 (0.178) kg and the “Body weight at Week 30, Mean (SD)” value (patients with T2DM [6]; mITT population) was 87.96 (15.08) kg. For the same substance, the “Body weight at Week 30, Median” value (patients with T2DM [6]; mITT population) was 85.90 kg, the “% of patients with events adjudicated as allergic reaction by ARAC: Any category, Any event” value (patients with T2DM [7]) was 0.3% and the “% of patients with events adjudicated as allergic reaction by ARAC: Not Related to IMP” value (patients with T2DM [7]) was 0.3%. For the same substance, the “% of patients with events adjudicated as allergic reaction by ARAC: Other, Rhinitis allergic” value (patients with T2DM [7]) was 0.3%, the “% of patients with events adjudicated as allergic reaction by ARAC: category Other” value (patients with T2DM [7]) was 0.3% and the “Events adjudicated as allergic reaction by ARAC” value (patients with T2DM [7]) was “One”. The “Number of patients with events adjudicated as allergic reaction by ARAC: Any category, Any event” value (patients with T2DM [7]) was 1, the “Number of patients with events adjudicated as allergic reaction by ARAC: Not Related to IMP” value (patients with T2DM [7]) was 1 and the “Number of patients with events adjudicated as allergic reaction by ARAC: Other, Rhinitis allergic” value (patients with T2DM [7]) was 1. The “Number of patients with events adjudicated as allergic reaction by ARAC: category Other” value (patients with T2DM [7]) was 1, the “Patients with TEAE of increased calcitonin (≥20 pg/mL)” value (patients with T2DM [8]; Example 3) was “Two” and the “% of patients with events reported on the AE form for increased calcitonin (≥20 ng/L): Blood calcitonin increased” value (patients with T2DM [8]; [11]) was 0.5%. The “Number of patients with events reported on the AE form for increased calcitonin (≥20 ng/L): Blood calcitonin increased” value (patients with T2DM [8]; [11]) was 2, the “% of patients with events reported on the AE form for increased calcitonin (≥20 ng/L): Any” value (patients with T2DM [8]; [10]) was 0.5% and the “Number of patients with events reported on the AE form for increased calcitonin (≥20 ng/L): Any” value (patients with T2DM [8]; [10]) was 2. For the same substance, the “Patients reporting pen-related events, %” value ([9]; Example 2) was 2.1%, the “Patients reporting pen-related events, number” value ([9]; Example 2) was 10 patients and the “Patients with events reported in pen-related event questionnaire: Any pen-related events” value ([9]; Safety population) was 10 (2.1%) Number (%). The “Pen-related events: Associated with a clinical event” value ([9]; Safety population) was 0 Number (%) and the “Pen-related events: Not associated with a clinical event” value ([9]; Safety population) was 10 (2.1%) Number (%).
